Article PMC2173603

Target: L1-CFP (CFP tagged to the COOH terminus of human L1-CAM) (human) (UniProt P32004)
Assay: FRET or BRET

Chain of UniProt P32004 (P32004 20-1257): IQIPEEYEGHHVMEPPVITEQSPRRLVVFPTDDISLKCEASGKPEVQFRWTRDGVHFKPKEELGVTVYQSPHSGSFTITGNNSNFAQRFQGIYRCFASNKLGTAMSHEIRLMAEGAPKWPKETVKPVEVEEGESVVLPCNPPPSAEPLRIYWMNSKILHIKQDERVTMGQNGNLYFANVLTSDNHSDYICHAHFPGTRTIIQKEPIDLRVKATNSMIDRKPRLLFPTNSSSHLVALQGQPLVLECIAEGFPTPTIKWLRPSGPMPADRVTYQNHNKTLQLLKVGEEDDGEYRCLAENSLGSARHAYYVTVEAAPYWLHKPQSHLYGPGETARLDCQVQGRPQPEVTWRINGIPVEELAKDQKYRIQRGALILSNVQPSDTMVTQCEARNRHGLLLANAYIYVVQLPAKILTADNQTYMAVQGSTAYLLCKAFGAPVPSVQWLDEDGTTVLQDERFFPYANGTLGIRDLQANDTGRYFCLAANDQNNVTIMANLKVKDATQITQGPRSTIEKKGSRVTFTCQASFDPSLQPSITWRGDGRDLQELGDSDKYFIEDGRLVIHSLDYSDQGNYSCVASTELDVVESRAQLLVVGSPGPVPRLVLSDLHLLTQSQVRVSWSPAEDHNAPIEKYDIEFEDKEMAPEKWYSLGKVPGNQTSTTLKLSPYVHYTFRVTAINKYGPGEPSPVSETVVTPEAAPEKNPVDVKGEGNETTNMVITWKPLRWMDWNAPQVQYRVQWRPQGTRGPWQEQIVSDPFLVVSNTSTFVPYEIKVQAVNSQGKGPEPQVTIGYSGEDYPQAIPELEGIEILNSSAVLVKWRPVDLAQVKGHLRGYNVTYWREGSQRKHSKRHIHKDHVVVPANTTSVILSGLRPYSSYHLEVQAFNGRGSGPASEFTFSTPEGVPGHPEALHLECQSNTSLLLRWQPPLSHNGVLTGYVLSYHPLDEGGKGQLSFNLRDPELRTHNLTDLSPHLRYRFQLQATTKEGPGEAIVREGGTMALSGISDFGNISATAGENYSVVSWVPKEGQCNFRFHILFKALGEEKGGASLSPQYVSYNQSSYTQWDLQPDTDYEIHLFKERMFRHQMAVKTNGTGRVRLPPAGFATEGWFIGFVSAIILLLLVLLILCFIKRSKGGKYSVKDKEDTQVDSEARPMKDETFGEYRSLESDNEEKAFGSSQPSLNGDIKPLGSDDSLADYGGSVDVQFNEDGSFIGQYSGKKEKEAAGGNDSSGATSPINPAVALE

- percent of ankyrinB clusters with FRET^E >8%: 29.4%
Substance: Venus-ankyrinB (Venus tagged to the NH2 terminus of human ankyrinB) (natural protein)
